Source: IntAct's records for PubMed 24114786

B1: BRASSINOSTEROID … 1-associated receptor kinase 1 (Arabidopsis thaliana (Mouse-ear cress)), Q94F62 (parent)
chain: MERRLMIPCFFWLILVLDLVLRVSGNAEGDALSALKNSLADPNKVLQSWDATLVTPCTWFHVTCNSDNSVTRVDLGNANLSGQLVMQLGQLPNLQYLELYSNNITGTIPEQLGNLTELVSLDLYLNNLSGPIPSTLGRLKKLRFLRLNNNSLSGEIPRSLTAVLTLQVLDLSNNPLTGDIPVNGSFSLFTPISFANTKLTPLPASPPPPISPTPPSPAGSNRITGAIAGGVAAGAALLFAVPAIALAWWRRKKPQDHFFDVPAEEDPEVHLGQLKRFSLRELQVASDNFSNKNILGRGGFGKVYKGRLADGTLVAVKRLKEERTQGGELQFQTEVEMISMAVHRNLLRLRGFCMTPTERLLVYPYMANGSVASCLRERPESQPPLDWPKRQRIALGSARGLAYLHDHCDPKIIHRDVKAANILLDEEFEAVVGDFGLAKLMDYKDTHVTTAVRGTIGHIAPEYLSTGKSSEKTDVFGYGVMLLELITGQRAFDLARLANDDDVMLLDWVKGLLKEKKLEALVDVDLQGNYKDEEVEQLIQVALLCTQSSPMERPKMSEVVRMLEGDGLAERWEEWQKEEMFRQDFNYPTHHPAVSGWIIGDSTSQIENEYPSGPR
B2: A-type flagellin (Pseudomonas aeruginosa), P21184 (parent)
chain: MALTVNTNIASLNTQRNLNNSSASLNTSLQRLSTGSRINSAKDDAAGLQIANRLTSQVNGLNVATKNANDGISLAQTAEGALQQSTNILQRMRDLSLQSANGSNSDSERTALNGEVKQLQKELDRISNTTTFGGRKLLDGSFGVASFQVGSAANEIISVGIDEMSAESLNGTYFKADGGGAVTAATASGTVDIAIGITGGSAVNVKVDMKGNETAEQAAAKIAAAVNDANVGIGAFSDGDTISYVSKAGKDGSGAITSAVSGVVIADTGSTGVGTAAGVTPSATAFAKTNDTVAKIDISTAKGAQSAVLVIDEAIKQIDAQRADLGAVQNRFDNTINNLKNIGENVSAARGRIEDTDFAAETANLTKNQVLQQAGTAILAQANQLPQSVLSLLR

Variants of: B1
Details: with flica_pseai fliC

Q: Which “effect of a mutation on the interaction” value does the source give for F60A;F144A here?
A: The value was “disrupting interaction strength”.

Q: For L53A, which “effect of a mutation on the interaction” value is on record?
A: Its value is “decreasing interaction strength”.

Q: With Y96A as the variant, how does the “effect of a mutation on the interaction” value read?
A: The value was “decreasing interaction strength”.

Q: Which “effect of a mutation on the interaction” value does the source give for V54Y here?
A: The value was “decreasing interaction strength”.

Variants of: B1
Details: with fls2_arath FLS2, Q9FL28
Target sequence in this assay (Q9FL28 whole entry): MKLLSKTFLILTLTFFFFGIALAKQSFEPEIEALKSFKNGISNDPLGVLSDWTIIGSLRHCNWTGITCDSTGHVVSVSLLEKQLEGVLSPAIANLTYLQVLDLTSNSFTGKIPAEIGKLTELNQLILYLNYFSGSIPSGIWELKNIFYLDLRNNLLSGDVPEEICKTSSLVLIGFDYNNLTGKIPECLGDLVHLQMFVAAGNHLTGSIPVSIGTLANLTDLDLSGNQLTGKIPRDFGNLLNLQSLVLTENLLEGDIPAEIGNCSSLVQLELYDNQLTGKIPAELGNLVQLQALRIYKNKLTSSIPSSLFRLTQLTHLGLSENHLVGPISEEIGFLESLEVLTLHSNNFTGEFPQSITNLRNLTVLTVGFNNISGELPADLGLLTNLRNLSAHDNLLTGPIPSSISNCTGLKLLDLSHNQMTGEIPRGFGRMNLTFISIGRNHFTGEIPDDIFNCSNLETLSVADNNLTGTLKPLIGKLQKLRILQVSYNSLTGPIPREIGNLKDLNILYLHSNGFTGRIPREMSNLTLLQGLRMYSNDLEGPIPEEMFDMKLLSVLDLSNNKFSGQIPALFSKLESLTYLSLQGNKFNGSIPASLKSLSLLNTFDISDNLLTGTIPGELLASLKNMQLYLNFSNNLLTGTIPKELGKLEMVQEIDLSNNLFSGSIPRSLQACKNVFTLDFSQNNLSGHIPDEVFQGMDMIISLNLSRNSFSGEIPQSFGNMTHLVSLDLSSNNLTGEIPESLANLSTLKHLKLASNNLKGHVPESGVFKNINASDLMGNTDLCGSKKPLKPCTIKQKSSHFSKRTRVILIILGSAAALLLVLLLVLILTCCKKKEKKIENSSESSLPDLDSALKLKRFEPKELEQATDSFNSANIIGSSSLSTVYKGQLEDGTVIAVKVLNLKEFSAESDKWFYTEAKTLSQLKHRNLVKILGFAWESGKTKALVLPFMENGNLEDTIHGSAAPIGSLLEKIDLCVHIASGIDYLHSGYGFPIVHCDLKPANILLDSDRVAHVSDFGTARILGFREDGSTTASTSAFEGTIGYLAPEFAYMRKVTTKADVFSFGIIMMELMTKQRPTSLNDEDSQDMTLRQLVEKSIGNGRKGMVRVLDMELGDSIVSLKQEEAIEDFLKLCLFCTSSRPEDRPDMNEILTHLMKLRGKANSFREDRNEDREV

Q: F60A;F144A was tested. Which “effect of a mutation on the interaction” value did it give?
A: The value was “disrupting interaction strength”.

Q: How did the “effect of a mutation on the interaction” value turn out when L53A was run?
A: Its value is “disrupting interaction strength”.

Q: Y96A was tested. Which “effect of a mutation on the interaction” value did it give?
A: The value was “disrupting interaction strength”.

Q: With V54Y as the variant, how does the “effect of a mutation on the interaction” value read?
A: Its value is “disrupting interaction strength”.

Variants of: B2
Details: with bak1_arath BAK1, Q94F62

Q: MALTVNTNIASLNTQRNLNNSSASLNTSLQRLSTGSRINSAKDDAAYLQIANRLTSQVNGLNVATKNANDGISLAQTAEGALQQSTNILQRMRDLSLQSANGSNSDSERTALNGEVKQLQKELDRISNTTTFGGRKLLDGSFGVASFQVGSAANEIISVGIDEMSAESLNGTYFKADGGGAVTAATASGTVDIAIGITGGSAVNVKVDMKGNETAEQAAAKIAAAVNDANVGIGAFSDGDTISYVSKAGKDGSGAITSAVSGVVIADTGSTGVGTAAGVTPSATAFAKTNDTVAKIDISTAKGAQSAVLVIDEAIKQIDAQRADLGAVQNRFDNTINNLKNIGENVSAARGRIEDTDFAAETANLTKNQVLQQAGTAILAQANQLPQSVLSLLR [G47Y] was tested. Which “effect of a mutation on the interaction” value did it give?
A: Its value is “disrupting interaction strength”.

Q: For MALTVNTNIASLNTQRNLNNSSASLNTSLQRLSTGSRINSAKDDAAALQIANRLTSQVNGLNVATKNANDGISLAQTAEGALQQSTNILQRMRDLSLQSANGSNSDSERTALNGEVKQLQKELDRISNTTTFGGRKLLDGSFGVASFQVGSAANEIISVGIDEMSAESLNGTYFKADGGGAVTAATASGTVDIAIGITGGSAVNVKVDMKGNETAEQAAAKIAAAVNDANVGIGAFSDGDTISYVSKAGKDGSGAITSAVSGVVIADTGSTGVGTAAGVTPSATAFAKTNDTVAKIDISTAKGAQSAVLVIDEAIKQIDAQRADLGAVQNRFDNTINNLKNIGENVSAARGRIEDTDFAAETANLTKNQVLQQAGTAILAQANQLPQSVLSLLR [G47A], which “effect of a mutation on the interaction” value is on record?
A: Its value is “decreasing interaction strength”.

Variants of: B2
Details: with fls2_arath FLS2, Q9FL28
Target sequence in this assay (Q9FL28 whole entry): as the sequence (Q9FL28 whole entry) above

Q: For MALTVNTNIASLNTQRNLNNSSASLNTSLQRLSTGSRINSAKDAAAGLQIANRLTSQVNGLNVATKNANDGISLAQTAEGALQQSTNILQRMRDLSLQSANGSNSDSERTALNGEVKQLQKELDRISNTTTFGGRKLLDGSFGVASFQVGSAANEIISVGIDEMSAESLNGTYFKADGGGAVTAATASGTVDIAIGITGGSAVNVKVDMKGNETAEQAAAKIAAAVNDANVGIGAFSDGDTISYVSKAGKDGSGAITSAVSGVVIADTGSTGVGTAAGVTPSATAFAKTNDTVAKIDISTAKGAQSAVLVIDEAIKQIDAQRADLGAVQNRFDNTINNLKNIGENVSAARGRIEDTDFAAETANLTKNQVLQQAGTAILAQANQLPQSVLSLLR [D44A], which “effect of a mutation on the interaction” value is on record?
A: The value was “disrupting interaction strength”.

Q: For MALTVNTNIASLNTQRNLNNSSASLNTSLQRLSTGSRINSAKDDAYGLQIANRLTSQVNGLNVATKNANDGISLAQTAEGALQQSTNILQRMRDLSLQSANGSNSDSERTALNGEVKQLQKELDRISNTTTFGGRKLLDGSFGVASFQVGSAANEIISVGIDEMSAESLNGTYFKADGGGAVTAATASGTVDIAIGITGGSAVNVKVDMKGNETAEQAAAKIAAAVNDANVGIGAFSDGDTISYVSKAGKDGSGAITSAVSGVVIADTGSTGVGTAAGVTPSATAFAKTNDTVAKIDISTAKGAQSAVLVIDEAIKQIDAQRADLGAVQNRFDNTINNLKNIGENVSAARGRIEDTDFAAETANLTKNQVLQQAGTAILAQANQLPQSVLSLLR [A46Y], which “effect of a mutation on the interaction” value is on record?
A: The value was “decreasing interaction strength”.

Q: Which “effect of a mutation on the interaction” value does the source give for MALTVNTNIASLNTQRNLNNSSASLNTSLQRLSTGSRINSAKADAAGLQIANRLTSQVNGLNVATKNANDGISLAQTAEGALQQSTNILQRMRDLSLQSANGSNSDSERTALNGEVKQLQKELDRISNTTTFGGRKLLDGSFGVASFQVGSAANEIISVGIDEMSAESLNGTYFKADGGGAVTAATASGTVDIAIGITGGSAVNVKVDMKGNETAEQAAAKIAAAVNDANVGIGAFSDGDTISYVSKAGKDGSGAITSAVSGVVIADTGSTGVGTAAGVTPSATAFAKTNDTVAKIDISTAKGAQSAVLVIDEAIKQIDAQRADLGAVQNRFDNTINNLKNIGENVSAARGRIEDTDFAAETANLTKNQVLQQAGTAILAQANQLPQSVLSLLR [D43A] here?
A: The value was “disrupting interaction strength”.
